Substitutions are numbered along the chain they refer to. Names and notes keep the numbering of the source.

In series [1] the test system is SRD5A2 (steroid 5α-reductase type II). Description: SRD5A2 activity in extracts of transfected cos cells: conversion of [14C] testosterone to [14C] dihydrotestosterone with NADPH. Format: biochemical, human. The note with it: for Vmax for testosterone to dihydrotestosterone conversion: normalized protein extracts of transfected cos cells, 37° C., cofactor NADPH.
Series [2] concerns the target T1, SRD5A2 (steroid 5α-reductase type II) (Homo sapiens, UniProt P31213, A49T/L89V).
T1 construct: expressed in transfected cells; host or cells: cos cells (electroporated; sonicated cell extracts)
T1 sequence (P31213 1-254 A49T/L89V): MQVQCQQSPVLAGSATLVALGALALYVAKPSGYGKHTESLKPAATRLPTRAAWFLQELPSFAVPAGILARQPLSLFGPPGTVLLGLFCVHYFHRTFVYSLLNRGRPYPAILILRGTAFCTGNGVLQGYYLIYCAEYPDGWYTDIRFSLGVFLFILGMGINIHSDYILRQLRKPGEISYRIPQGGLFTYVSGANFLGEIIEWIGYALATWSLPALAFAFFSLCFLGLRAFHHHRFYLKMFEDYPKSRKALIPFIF
The description is as above. The note with it: substrate testosterone. It is filed as biochemical.

B1: normal enzyme: normal (wild type) steroid 5α-reductase type II from the SRD5A2 construct expressed in cos cells (protein, UniProt P31213 1-254, looked up)
3-oxo-5-alpha-steroid …: T1 sequence (P31213 1-254 A49T/L89V) with T49A, V89L
For the molecule B1, in series [1], the “Vmax for testosterone to dihydrotestosterone conversion” value came to 1.3 nmol/min/mg and the “testosterone concentration at which the enzyme is substrate inhibited” value stood at 1.5 µM.

B2: A49T enzyme: steroid 5α-reductase type II encoded by SRD5A2 cDNA with the A49T missense mutation, expressed in cos cells (protein, UniProt P31213 1-254, looked up, variant A49T)
3-oxo-5-alpha-steroid …: T1 sequence (P31213 1-254 A49T/L89V) with V89L
In the case of B2, the “apparent KM for testosterone compared to the normal enzyme” value in series [2] is “higher KM for testosterone”. In series [1], the “Vmax for testosterone to dihydrotestosterone conversion” value came to 3.8 nmol/min/mg and the “testosterone concentration at which the enzyme is substrate inhibited” value worked out at 6 µM.
